Test results as given in patent US20170356903, “OLIGONUCLEOTIDE PROBES AND USES THEREOF” (Caris Science, Inc., published 2017).

Target: Argonaute-2 (hAgo2) (Homo sapiens, UniProt Q9UKV8 Q9UKV8:1-859)
Test: EMSA; DNA cariMir co-migrates with Ago2-miR complex
Settings: tags: expressed in sf9 insect cells, endogenous insect miRs co-purify; label: fluorescein
Experimental: Recombinant hAgo2 (Creative Biomart) was preloaded with synthetic miR guide in cleavage buffer (150 mM NaCl, 5 mM MgCl₂, 2.5% glycerol, 0.05% Tween-20, 10 mM Tris-HCl, pH 7.4) for 10-20 min at room temperature, followed by addition of target cariMir. Reactions were stopped by addition of gel loading buffer and immediately resolved by non-denaturing PAGE using 10% TBE gels (Life Technologies). Gels were stained with SYBR Green I and imaged with a PXi gel imager (Syngene). Gel densitometric analysis was performed using Image J and data were plotted in Prism 6 (GraphPad).
When cariMirs were mixed with recombinant Ago2 pre-loaded with synthetic miRs, cariMirs were cleaved producing the expected 5′ and 3′ cleavage products (see FIG. 14B), consistent with miR-guided Ago2 endonucleolytic action subsequent to specific hybridization of cariMir and miR within Ago2. […] Various components of the method are shown in the lanes of the gel as indicated above the gel. In the rightmost lane on the gel image (labeled “miR+Ago2+cariMir”), all components are added to allow potential Ago-mediated cleavage of the cariMir to occur (see FIG. 14A). The amounts of the various components in the reaction mixture are indicated to the left of the gel. […]

Argonaute-2 (hAgo2), sequence (Q9UKV8 whole entry, one chain of several): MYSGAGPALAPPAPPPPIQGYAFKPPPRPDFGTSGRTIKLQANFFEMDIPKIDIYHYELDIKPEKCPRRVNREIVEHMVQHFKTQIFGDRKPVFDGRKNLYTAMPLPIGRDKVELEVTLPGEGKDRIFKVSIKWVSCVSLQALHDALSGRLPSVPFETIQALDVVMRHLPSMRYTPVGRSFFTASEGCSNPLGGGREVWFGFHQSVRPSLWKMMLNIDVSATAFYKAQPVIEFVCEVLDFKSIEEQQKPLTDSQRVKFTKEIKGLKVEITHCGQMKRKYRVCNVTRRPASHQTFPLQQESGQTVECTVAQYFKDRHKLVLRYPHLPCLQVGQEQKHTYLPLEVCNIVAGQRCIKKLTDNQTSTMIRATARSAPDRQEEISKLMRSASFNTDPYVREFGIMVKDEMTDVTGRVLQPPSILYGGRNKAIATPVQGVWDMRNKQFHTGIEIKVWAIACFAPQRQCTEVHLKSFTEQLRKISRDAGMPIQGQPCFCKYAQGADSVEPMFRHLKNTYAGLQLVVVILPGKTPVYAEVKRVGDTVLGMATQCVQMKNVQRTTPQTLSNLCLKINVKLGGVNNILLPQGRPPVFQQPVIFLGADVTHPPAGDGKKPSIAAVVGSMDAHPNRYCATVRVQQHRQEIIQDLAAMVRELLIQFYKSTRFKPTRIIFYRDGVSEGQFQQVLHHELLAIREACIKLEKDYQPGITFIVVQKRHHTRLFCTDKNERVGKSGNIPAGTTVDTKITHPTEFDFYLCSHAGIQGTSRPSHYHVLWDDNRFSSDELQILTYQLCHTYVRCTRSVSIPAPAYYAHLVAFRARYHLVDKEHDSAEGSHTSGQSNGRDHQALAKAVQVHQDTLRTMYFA

B1: miR guide ; cariMir target (ssRNA ; ssDNA)
RNA: UAGAGGUACGUGCUGAGGCUU
DNA: CTAGCATGACTGCAGTACGTCACTGCAGGCCTCAGCACGTACCTCTATAACCGCCCTGTCTCTTATACACATCTGACGCTGCCGACGA
modifications: 5'-phosphate, internal fluorescein-dT
  binding result: binds
